43 molecules from patent US20050080013A1 (Pfizer, published 2005) can be followed below.

Non-standard residues stand in square brackets, D forms with d. No end group written: not given here. Aib = CC(C)(N)C(=O)O

For the assay, the target named is T1, lecithin:cholesterol acyltransferase (LCAT), purified from human plasma (human, UniProt P04180 25-440).
T1 sequence (looked up): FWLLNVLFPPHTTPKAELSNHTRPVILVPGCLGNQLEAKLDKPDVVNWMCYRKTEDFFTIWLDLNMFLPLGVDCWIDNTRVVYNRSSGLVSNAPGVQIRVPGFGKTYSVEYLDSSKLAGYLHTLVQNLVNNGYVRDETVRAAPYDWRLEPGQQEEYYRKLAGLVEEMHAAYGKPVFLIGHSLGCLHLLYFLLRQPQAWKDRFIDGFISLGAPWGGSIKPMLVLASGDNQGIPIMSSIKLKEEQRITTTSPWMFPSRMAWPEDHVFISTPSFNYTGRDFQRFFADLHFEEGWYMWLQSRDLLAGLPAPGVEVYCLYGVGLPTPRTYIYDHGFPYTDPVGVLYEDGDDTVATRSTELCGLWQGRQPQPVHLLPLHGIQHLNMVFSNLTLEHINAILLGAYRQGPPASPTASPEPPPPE
The assay can be described thus: cell-based or functional assay.
As for PVLDLFRELLNE[Aib]LEALKQKLK [peptide 6], the “ACTIVITY (%) LCAT” value is 80%.
Consider VLDEFREKLNE[Aib]LEALKQKLK [peptide 65], for which the “ACTIVITY (%) LCAT” value amounted to 15%.
The result for [dP][dL][dL][dE][dL][dL][dK][dE][dL][dL][dQ][dE][dL][dL][dE][dA][dL][dK][dQ][dK][dL][dK] [peptide 87] reads 7%.
The result for LVLDLFRELLNELLEALKQKLK [peptide 59] reads 17%.
Regarding PVLDLFWELLNE[Aib]LEALKQKLK [peptide 51], the “ACTIVITY (%) LCAT” value amounted to 20%.
With PVLDFFREKLNE[Aib]LEALKQKLK [peptide 63], the “ACTIVITY (%) LCAT” value came to 16%.
PVLDEFRELLKE[Aib]LEALKQKLK [peptide 68]: the “ACTIVITY (%) LCAT” value was 14%.
The result for PVLDEWREKLNE[Aib]LEALKQKLK [peptide 62] reads 16%.
To PVWDEFREKLNE[Aib]LEALKQKLK [peptide 52] belongs 20%; to PVLDLFRELLNEWLEALKQKLK [peptide 54], 19%.
The result for PVLDEFREKLNE[Aib]LEALKQKL [peptide 58] reads 18%.
Regarding PVLDLFRELLNELLEALKQ [peptide 60], the “ACTIVITY (%) LCAT” value worked out at 16%.
The result for PVLDEFRKKLNE[Aib]LEALKQKLK [peptide 69] reads 13%.
The result for PVLDEFRELLFE[Aib]LEALKQKLK [peptide 76] reads 9%; that for PVLDEFREKLNE[Aib]LWALKQKLK [peptide 89], 6%.
To PWLDEFREKLNE[Aib]LEALKQKLK [peptide 64] belongs 15%; to PLDLFRELLNELLEALKQKLK [peptide 85], 7%.
In the case of PVLDEFREKLNEL[Aib]EALKQKLK [peptide 71], the “ACTIVITY (%) LCAT” value was 11%.
To PVLDEFRELLNELLEALKQKLK [peptide 79] belongs 9%.
To PVLDLFRELLNE[Aib]LWALKQKLK [peptide 72] belongs 11%; to LDEFREKLNE[Aib]LEALKQKLK [peptide 82], 8%; to PVLDLFRNLLEELLEALQKKLK [peptide 66], 15%.
To PVLDEFRWKLNE[Aib]LEALKQKLK [peptide 61] belongs 16%.
Take PVLDKFRELLNE[Aib]LEALKQKLK [peptide 88]: the “ACTIVITY (%) LCAT” value amounted to 7%.
To PVLELFERLLDELLNALQKKLK [peptide 86] belongs 7%.
For the molecule PVLDEFRELLYE[Aib]LEALKQKLK [peptide 70], the “ACTIVITY (%) LCAT” value was found to be 12%.
As for PVLDLFKELLNELLEALKQKLK [peptide 7], the “ACTIVITY (%) LCAT” value stood at 83%.
As to VVLDLFRELLNELLEALKQKLK [peptide 53], the “ACTIVITY (%) LCAT” value came out at 19%.
In the case of PVLDEFREKLNELLEALKQKLK [peptide 84], the “ACTIVITY (%) LCAT” value came out at 7%.
To PVLDLFRNLLEELLKALEQKLK [peptide 57] belongs 18%; to PVLDLFRELGNELLEALKQKLK [peptide 9], 83%.
The result for PVLDLFRELLNELLEALKQKKK [peptide 56] reads 18%.
To PVLDLFRELLNEGLEALKQKLK [peptide 8] belongs 83%; to PVLDKFREKLNE[Aib]LEALKQKLK [peptide 74], 10%; to PVLDEFREKLNK[Aib]LEALKQKLK [peptide 77], 9%.
Regarding DEFREKLNE[Aib]LEALKQKLK [peptide 90], the “ACTIVITY (%) LCAT” value was 6%.
For the molecule PLFRELLNELLEALKQKLK [peptide 55], the “ACTIVITY (%) LCAT” value worked out at 19%.
With PVLDLFERLLNELLEALQKKLK [peptide 80], the “ACTIVITY (%) LCAT” value worked out at 9%.
For VLDLFRELLNELLEALKQKLK [peptide 67], the “ACTIVITY (%) LCAT” value is 14%.
In the case of PVLDEFWEKLNE[Aib]LEALKQKLK [peptide 73], the “ACTIVITY (%) LCAT” value turned out to be 10%.
For the molecule PVLDEFRELLNE[Aib]LEALKQKLK [peptide 91], the “ACTIVITY (%) LCAT” value came to 6%.
On to PVLDEFREKLNEELEALKQKLK [peptide 75], for which the “ACTIVITY (%) LCAT” value is 10%.
To PVLDEFRELYNE[Aib]LEALKQKLK [peptide 92] belongs 5%.
